Source: patent publication US20220010017A1 (Bayer, published 2022)

Target: T1, human CEACAM6 (human, UniProt P40199 35-320)
T1 sequence (looked up): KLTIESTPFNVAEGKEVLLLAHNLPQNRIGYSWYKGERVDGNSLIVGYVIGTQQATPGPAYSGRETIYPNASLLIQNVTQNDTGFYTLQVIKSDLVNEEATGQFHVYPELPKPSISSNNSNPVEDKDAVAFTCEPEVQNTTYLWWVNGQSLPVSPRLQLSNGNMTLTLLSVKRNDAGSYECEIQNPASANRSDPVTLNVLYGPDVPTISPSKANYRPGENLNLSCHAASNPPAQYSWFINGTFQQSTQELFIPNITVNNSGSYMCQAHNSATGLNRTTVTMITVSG
Experiment: cell-based or functional assay

B1: TPP-3310 (antibody, human IgG2, kappa, V domains shown)
VH: QVTLRESGPALVKPTQTLTLTCTFSGFSLSTYGIGVGWIRQPPGKALEWLAHIWWNDNKYYSTSLKTRLTISKDTSKNQVVLTMTNMDPVDTATYYCARISLPYFDYWGQGTTLTVSS
VL: DIQLTQSPSFLSASVGDRVTITCKASQNVGTAVAWYQQKPGKAPKLLIYSASNRYTGVPSRFSGSGSGTEFTLTISSLQPEDFATYYCQQYSSYPLTFGGGTKVEIKR
half-maximal effective concentration (EC50) on the activation of T cells in co-culture: ~1 µg/mL
